Test: yeast display, Sf9 membrane polyspecificity reagent, FACS + sequencing; frameworks hold sequencing errors
Outline: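 Nanobodies came from a synthetic yeast display library in Saccharomyces cerevisiae BJ5465, induced with galactose for 36–48 hours and stained for 1 hour at 4 °C with 10% biotinylated, detergent-solubilized Sf9 membrane reagent. Cells were enriched on streptavidin microbeads and then FACS-sorted, with low and high (top ~1%) gates set on anti-HA fluorescence for expression and streptavidin fluorescence for reagent binding. Each polyreactivity label reflects the gate a clone came from. Genes were amplified by colony PCR, sequenced by MiSeq 2 × 250 and filtered by CDR length.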

Row | Sequence | polyreactivity (PSR sort gate)
1 | QVQLVESGRGLVQAGGSLRLSCAASGSIFWYYAMGWYRPSPGKETELVAAIRRGGSTTYADSVKGRFTISRDNAKNTVYLQMNSLKPEDTAVYYCAAEPYYWYRGDYWGQGTQVTVSS | high polyreactivity
2 | QVQLVESGGGLVQAGGSLRLSCAASGYIFVRYAMGWYRQAPGKERELVAAINSSGGRTYYADSVKGRFTISRDNAKNTVYLQLNSLKPEDTAVYYCAAYGYYRSGYRALEGYWGQGTQVTVAS | high polyreactivity
3 | QVQLVESGGGLVQAGGSLSLRCASYGSISFINAMGWYRQAPGKEMELVARITWSGGTTYYADSVKGRFTISRDNAKNTVYLQMNSLKPEDTAVYYCAAYIWAPLEGYEYDYWGQGTQVTVSS | high polyreactivity
4 | QVQLVESGGGLVQAGGSLRLSCAASGRTFYRNAMGWYRPAPGKERELVAAITSSGASTYYADSVKGRFTISRDNAKNTVYLQMKSLKPEDTAVYYCAAKYVFSVGNYRYDYWGQGTQVTGSS | low polyreactivity
5 | QVQLVESGGGLVQAGGSLRLSCAASGYNFYINPMGWYRQAPGKERELVATIRRRGGSTYYADSVKGRFTISRDNAKNTVYLQMNSLKPEDTAVYYCNAVTLGGKYVYQYRRGFDYWGQGTQVTVSS | high polyreactivity
6 | QVQLVESGGGLVQAGGSLRLSCAASGRTFPPYAMGWYRQAPGKERELVAAISRRAGTTYYADSVKGRFTISRDNAKNTVYLQMNSLKPEDTAVYYCAALTESSSYGYWGQGTQVTVSS | low polyreactivity
7 | QVQLVESGGGIVQAGGSLRLSCPASGIIFYLNPMGWSRQAPGKERELVAAITRGGSTYYADSVKGRFTISRDNEKNTVYLQMNSLKPEDTAVYYWAAKHGPGYRRWYDYWGQGTQVTVSS | high polyreactivity
8 | QVQLVESGGGLVQAGGSLRLSCAASGFTFRRYAMGWYRQAPGKERELVAAISLRSGRTNYADSVKGRFTISRDNAKNTVYLQMNSLKPEDTAVYYCAAGLYGKRAGTSYGYDYWGQGTQVTVSS | high polyreactivity
9 | QVQLVESGGGLVQAGGSLRLSCAASGFIFDAYAMGWYRQAPGKERELVAAIDSGGSTDYADSVKGRFTISRDNAKNTVYLQMNSLKPEDTAVYYCNAERAYLWWYNFDYWGQGTQVTVSS | low polyreactivity
10 | QFQLVESGGGLVQAGGSLRLSCASSGSIFWYYAMGWYRQAPGKERELVATITSGGRTDYADSVKGRFTISRDNAKNTVYLQMNSLKPEDTAVYFCAAGPRWRPRSYDYWGHGTQVTVSS | high polyreactivity
11 | QVQLVESGGGLVQAGGSLRLSCAASGRTFIRNAMGWYRQAPGKERELVASISRRGGSTYYADSVKGRYTISRDNAKNTVYLQMNSLKPEDTAVYYCAKAYAFVTSGLGYDYWGQGTQVTVSS | high polyreactivity
12 | QVQLVESGRGLVQAGGSLSLSCAASGITFRPYPMGWYRKAPGKERELVAAISRGGSSTYYADSVKGRFTISRDYAKNTVYLQMISLKPEDTAVYYFAARNNKKYDYWGQGTQVTVSS | high polyreactivity
13 | QVQLVESGGGLVQAGGSLRLSCADSGLIFQYYVMVWYRQAQGKERELVAAISARGGGTYYADSVKGRFTISRDNAKNTVYLPMNSLKPEVTAVYYCAAHQVYAGPGYDYWGQGTQVTVSS | high polyreactivity
14 | QLQLVESGGGLVQAGGSLRLSCAASGRIFYPYAMGWYRQAPGKERELVPAIDYSDGNSYYADSVKGRFTISRDNAKNTVYLQMNSLKPEDTAVYYWAVEYTGAWIGVWYDYWGQGTQVTVSS | high polyreactivity
15 | QVQLVESGGGVVEAGGSLRLSCAASGSTLGFYARGWYRQAPGKEWEFVAAITRSGTSTYYADSVKGRFTISRDNAKNTVYLQMTSLKPEDTAVYYCPAESYYGVPYDSWGQGTQVTLSS | high polyreactivity
16 | QVQLVESGGGLVQAGGSLRLSCAASGSTFSRYAMGWYRPAPGKERELVATITRGGSTNYADSVKGRFTISRDNAQNTVYLQMTSLKPEDTAVYYCNKTARYVDGRGDYWGQGTQVTVSS | low polyreactivity
17 | QVQLVESGGGLVQAGGSLRLSCAASGSIFGWYAKGLYRQAPGKEREFVAVISSSGDSTFYADSVKGRFTISRDNAKNTVYLQMNSLKPEDTAVYYCAAYYYYYYWPQTAYWQGDYWGHGTQVTVSS | high polyreactivity
18 | QVQLVESGGGLVQAGGSLRLSCAASGLTLFRYAMGWYRQAPGKERELVAAIDYGGGTYYADSVKGRFTISRDNAKNTVYLQMNSLKPEDTAVYYCAVEPEYKYYEGDYWGQGTQVTVSS | low polyreactivity
19 | QVLLQETGGGLVQAGGSLRLSCAASGTISTDIRMGWYRLAPGKESEFVASIDCCSTTYYADSVKGRFTISRDNAKYTVYLQMNSLKPEDTAMYYCAAREATEFYLYYWGQGTQVTVSS | low polyreactivity
20 | QVQLVESGGGLVQAGGSLRLSCAASGSTFGRYAMGWYRQAPGKERELVAAITSGSSTNYADSVKGRFTISRDNAKNTVYLPMNSLKPEDTAVYYCAAPKSRQSTYYYWGQGTQVTVSS | high polyreactivity
21 | HVQHVESGGGLVQAGGSLRLSCAASGFTFFYYTMGWYRQAPGKERELVAAISKGGGSTFYADSVKGRFTISRDNAKNTVYLQMNSLKPEDTAVYYCAASYVRGYDYWGQGTQVTVSS | high polyreactivity
22 | QVQLVESGGGLVQAGGSLSLSCAASGSTFVWYAMGWYRQAPGTERELVATITYGGGSTNYADSVKGRFTISRDNAKNTVYLQMNSLKPEDTAVYYCNADTYFESGYWGQGTLVTVSS | low polyreactivity

Row | Sequence | polyreactivity (PSR sort gate)
23 | QVQLVESGGGLVQAGGSLRLSCAASGSTFRDYAMGWYRQAPGKERELVAAITSGGSTNYADSVKGRFTISRDNAKNTVYLQMNSLKPEDTAVYYCNARYAGWYTPWGRQSVYSDDYWGQGTQVTVSS | low polyreactivity
24 | QVQLVESGGGLVQAGGSLRLSCAASGSTLDLYAMGWYRQAPGKEREFVASISWSGGSTYYADSVKGRFTISRDNAKNTVYLQMNRLKPEDTAVYYCAADLVIRGSLYVSSWYDYWGQGSQVTVSS | low polyreactivity
25 | QVQLVESGGGLVQAGGSLRLSCAASGRTFSYYTMGWYRQAPGKERELVAAITSSGGSTYYADSVKGRFTISRDNAKNTVYLQMNSLKPEDTAVYYCAVLNYWAMDYWGQGTQVTVSS | high polyreactivity
26 | QVQLVESGGGLVQAGGSLSLMCAASGRTLRSYAMGWYRQAPGKEMEFVASISRSGGSTYYADSVKGRFTISRDNAKNTVYLQMNSLKPEDTAVYYCAAGVRYPYRYYYWGQGTQVTVSS | high polyreactivity
27 | QVQLVESGGGLVQAGGSLRISCAASGFTFVSNDMGWYRQAPGKERELVAAISQGGGSTYYADSVKGRFTISRDNAKNTVYLQMNSLKPEDTAVYYCAADIWARYYFWGFEHDYWGQGTQVTVSS | low polyreactivity
28 | QVQLVESGGGLVQAGGSLRLSCAASGFTFVSYAMGWYRQAPGKERELVATITSDGSTNYADSVKGRFTISRDNAKNTVYLQMNSLKPEDTAVYYCAADIHYYPGYLAYDYWGQGTQVTVSS | low polyreactivity
29 | QVQLVESGGGLVQAGGSLRLSCAASGIIFSAYAMGWYRQAPGKERELVAAISSGGSTNYADSVKGRFTISRDNAKNTVYLQMNSLKPEDTAVYYCNAGERDVPNSYVAYREDYWGQGTQVTVSS | low polyreactivity
30 | QVQHVESGGALVQAGGSLRLSCAASGSIFGDYAMGWYRQAPGKERELVAAITSDRDTYYADSVKGRFTISRDNAKNTVYLQMNSLKPEDTAVYYCNATYGGPYFIQYDYWGQGTQVTVSS | low polyreactivity
31 | QVQLVESGGGLVQAGGSLRLSCAASGRTFFSNAMGWYRPAPGKERELVAAISNGDNTYYADSVKGRFTISRDNAKNTVYLQMNSLKPEDTAVYYCAADQYWSWIYYPVVEYDYWGQGTQVTVSS | low polyreactivity
32 | QVQLVESGGGLVQAGGSLRLSCAACGSIFPAYAMGWYRQAPGKERELVASITGSGGSTYYADSVKGRFTISRDNAKNTVYLQMNSLKPEDTAVYYCNARYYVYSATVDRYYHFYYWGQGTQVTVSS | high polyreactivity
33 | QVQLVESGGGLVQAGGSLRLSCAASGSTLYSYAMGWYRQAPGKERELVAAISIGDSTNYADSVKGRFTISRDNAKNTVYLQMNSLKPVDTAVYYCAADWDESYSYRRYRHYDYWGQGTQVSVSS | low polyreactivity
34 | QVQLVESGGGLVQAGGSLRLSCAASGSIFKDYAMGWYRQAPGKERELVAAITSGGRTNYADSVKGRFTISRDNAKNTVYLQMNSLKPEDTAVYYCAARKGKETLYHSTPPYYYWGQGTQVTVSS | low polyreactivity
35 | QVQLVESGGGLVQAGGSLRLSCAASGSTFYVYAMGWYRQAPGKEREFVAAISFSSGSTYYADSVKGRFTISRDYAKNTVYLQMNSLKPEDTAVYYCAARYRYPRSIGYGYGGAFDYWGQGTQVTVSS | high polyreactivity
36 | QVQLVESGGGLVQAGGSLRLSCAASGSTFGYYAMGWYRQAPGKERELVAAITSSGGSTYYSDSVKGRFTISRDNAKNTVYLQMYSMNPEDTAVYDCNTRWCFYIDPFYYEYDYWGQGSQVTVSS | low polyreactivity
37 | QVQLVESGGGLVQAAGSLRLSCAASGLPSVDAMGWYRQAPGKERELVAAISLTGSSTYYADSVKGRFTISRDNAKNTVYLQRNSLKPEDTAVYYCAADSSYTPNDDNWGQGTQVTVSS | low polyreactivity
38 | QVHLVESGGGLVQAGGSLRLSCAASGSTFDAYDMGWYRQAPGKERELVAAISSSGGSTYYADSVKGRFTISRDNAKNTVYLQMNSLKPEDTAVYYCAADWSVWDYDYWGQGTQVTVSS | low polyreactivity
39 | QVQLVESGGGLVQAGGSLRLSCAASGRTLYWYAMGWYRQAPGKEREFVAAITWRGGSTSYADSVKGRFTISRDNAKNTVYLQMNSLKPEDTAVYYCAASSFRSYYSGKYDYWGQGTQVTVSS | high polyreactivity
40 | QVQLGESGGGLVQAGGSLRLSCAASGLTFPVYPMGWYRQAPGKEREFVTAITYNGGRTYYADSVKGRFTISRDNAKNTVYLQMNSLKPEDTAVYYCNAARSRGANLVPPYRLYYWGQGTQVTVSS | low polyreactivity
41 | QVQLVESGGGLVQAGGSLRLSCAASGSTFARYAMGWYRQAPGKERELVAAITWGGGGTYADSVKGRFTISRDNAKNTVSLQMNSLKPEDTAVYYCNAYGPLILFIGFRLDYWGQGTQVTVSS | low polyreactivity
42 | QVQLVESGGGLVQAGGSLRLSCAASGFTFPYYAMGWYRQAPGKERELVAVISRSGGSTYYADSVKGRFTISRDNAKNTVYLQMNSLKPEDTAVYYCAKRYSLTGGKRTGYYWGQGTQVTVSS | high polyreactivity
43 | QVHLVESWGGLVQAGGSLRLSCAASGSTFGYNAMGWYRQAPGKERELVAAITSGGSTNYADSVKGRFTISRDNAKNTVYLQMNSLKPEDTAVYYCAKLAADRRSYYWGQGTQVTVSS | high polyreactivity
